Assay: soluble on expression in E. coli; label from the status in PepcDB or PDB records

IVGGYTCAANSIPYQVSLNSGSHFCGGSLINSQWVVSAAHCYKSRIQVRLGEHNIDVLEGNEQFINAAKIITHPNFNGNTLDNDIMLIKLSSPATLNSRVATVSLPRSCAAAGTECLISGWGNTKSSGSSYPSLLQCLKAPVLSDSSCKSSYPGQITGNMICVGFLEGGKDSCQGDSGGPVVCNGQLQGIVSWGYGCAQKNKPGVYTKVCNYVNWIQQTIAAN
soluble on expression in E. coli: soluble

YMYKKYDILKGDKSERVLDRRFITNLCMNGVPMGLQYSITAIGSTILQAAVNTLGSTYVAAMTAGSKMFNFTCCPFDALGSTMATYAGQNVGAAKIKRLGQGVR
soluble on expression in E. coli: not soluble

MIYKSIAERLRIRLNSADFTLNSLLPGEKKLAEEFAVSRMTIRKAIDLLVAWGLVVRRHGSGTYLVRKDVLHQTASLTGLVEVLKRQGKTVTSQVLIFEIMPAPPAIASQLRIQINEQIYFSRRVRFVEGKPLMLEDSYMPVKLFRNLSLQHLEGSKFEYIEQECGILIGGNYESLTPVLADRLLARQMKVAEHTPLLRITSLSYSESGEFLNYSVMFRNASEYQVEYHLRRLHPEKS
soluble on expression in E. coli: soluble

MGSDKIHHHHHHMSRSPFQTFVWRSEIFECQSTDIQRFYSLLAIETERLGLGSKILGQAGHHPLYLLQSPGQKAGLPNLLISAGFHGEESAGPWGLLHFLSQLDGELFKRVNLSVLPLVNPTGFAKGHRFNELGENPNRGFFIENGKAKPGADTSAEGRILLEHAHLLQVASRDGILTCHEDVLMTDTYVYTFEPSQAPGRFSHSLRDALGQYFPIAADGDVDNCPVRSGVIFNHFDTSFESFLVRSGARVGCCSETPGQQPLDQRILANAAAMNTFVNMLAPELS
soluble on expression in E. coli: not soluble

SNAMANFEDFLTLDLRIGTVTHAEEFKEARVPAIRLEIDFGELGMKQSSAQITKRYNPEDLIGQQIVAVVNFPPKRVAGFKSEVLVLGGVPEAGDVVLLQPNMELPNGTKIS
soluble on expression in E. coli: soluble

GMSQTTVVNGVNVDQLMATIEQIKAKPEIAQFKFRATNQWMGGTHNQATIKDFYGACAEDDTRKPMVFDLDEPPVLLGENRGANPVEYLLVALSGCLTTSLVAHAAARGIALRGVKSRYEGDIDLRGFLGLSEEVPVGYREIRVFFSIDADLTDGQKEELIRMAQKYSPVYNTVAKPVPVAVLLDRG
soluble on expression in E. coli: soluble

MAHHHHHHMSGAGRKHRAKHLTQQYLDASGWVGPKEGERLAICMESPHGQHVRVLLLVHPNSAPASSSTEAPAPDGSSSSDAPHGAKESEAGVSASPPSAAPLLEVEQVVHLPRKFHKVIWLSIKDVVVIADGTVSFKPSPEQVESFLKDPRNKGWRERVATAQHRAEDQRAALQRMPHYAATAQTTTSVLTGPQVRSGVRATANGTSEQDSEGSEGEADDMRNPNWRNIKHQQHFFYGLGDDSDEIEEEEDA
soluble on expression in E. coli: not soluble

MNITKAFCLSIALLGASNMQAITNSDFVIQQDNTKINNYQTNRPETSKRLFVSQAVEQQIAHIKQLLTNARLAWMFENCFPNTLDTTVHFDGKDDTFVYTGDIHAMWLRDSGAQVWPYVQLANKDAELKKMLAGVIKRQFKCINIDPYANAFNMNSEGGEWMSDLTDMKPELHERKWEIDSLCYPIRLAYHYWKTTGDASIFSDEWLTAIAKVLKTFKEQQRKEDPKGPYRFQRKTERALDTMTNDGWGNPVKPVGLIASAFRPSDDATTFQFLVPSNFFAVTSLRKAAEILNTVNKKPDLAKECTTLSNEVETALKKYAVYNHPKYGKIYAFEVDGFGNQLLMDDANVPSLIALPYLGDVKVNDPIYQNTRKFVWSEDNPYFFKGTAGEGIGGPHIGYDMIWPMSIMMKAFTSQNDAEIKTCIKMLMDTDAGTGFMHESFHKNDPKNFTRSWFAWQNTLFGELILKLVNEGKVDLLNSIQLEHHHHHH
soluble on expression in E. coli: not soluble

MGSDKIHHHHHHMTEQITPQAFLAGRLLLESEVPSEFLTNKDVITEPSIITENGRYHCRRCCNEHRELFATAPCAWCGNRHCIYCRNCLMLGRVTACRKLVRWKGEPYAFPSHSNVLQWKGTLSHGQRHASLQAVQYWKQKEDHIIWAVCGSGKTEIVFDAVAQSLANGERILLATPRVDVVKELYPRFKQAFPSITITALYGDSPSVFHPAQLVIATTHQTFRFKKAFDFVIVDEVDAFPFSCDQSLQLSVNEARRPLAPILYLSATPSRSLLEQNKRITKVSTRYHGHPLPLPSFVWIGNWRKTVMRRKLPSKLVTWLEKHHRKPVFLFVPSIPVLEQVSAALKQLGYIHDAVHAEDPHRHEKVTRFRDGVTKLLVTTTILERGVTVPRVQVAVLGAEHSVFSEAALVQISGRVGRSHRHPTGDIAFFHYGVSKAMKRCRQQLQQMNREGF
soluble on expression in E. coli: not soluble

MPSSDPTQSSGFAGLRSTSWPVLGILSFGEELSGYDLKKWASYSVRFFYWSPSFSQVYSELKKLEDLGYVTSRTVVDDEARVKPKRLYKITDAGMAVMRSWAREAPIDPPVLKHGVMLRMWLGHLTEPEQLKDALKEHISYVEGMSRQAALDARDSDVEPTWAFAHMVNKWSERYYAAESELAKQMLADIDEAVERMHGEGTPEHPGVPKPTASHSIRRSREAQKEYQAAMKAAQDADDEAERED
soluble on expression in E. coli: not soluble

MEFAKMCFEKLYGVDTSEAKEMYNSVYDVMKAMLKEYTVIFKGPNTQSSQSNPPSSTAARDIFACELAEDSNVEFERMDRSYKEMVNEIRVTDPKDELDIYLKAEVENPKTLPGMEWDVLSWWRLNSQKYPVLSEIARDVLAMQVSYVASESAFSTSGRLLEPSRSCLTHYMVETLVCLEQWLKSEIKLSENTFLTNTQLLADIELLDKLEKGNFIYVVY
soluble on expression in E. coli: soluble

MTGSACFFSTDFLFGRYGPTVCIIPSENIPDKANTMIRPDFQEYLPSYYFSSVNPHTVYPKLQCRLKAETCIIGGGLSGLCTALPLAEHGHEAVVLEAARIGFGASGRSGGQVISDYACGMGEIEKQVGLEQAQWFWQQSLQAVELVDERVRKHAIDCDWQRGYATVAVRPQHWEELQQWHEHAQRHYGASHYQLWDKAELKQQLDSDMYQGAQFDPLSGHLHPLNYTLGVASAAAEAGAQIFEQSPMTRIEPYQNGWLVYTPEGSVECKNVVYAVNTYVGLNPIFRPLERKAIAVSTFIIATEPLGARTKGLIRNNMAVCDNRHILDYYRLSADGRLLFGGKDNEFIDNPARMTELVRQDMLKVFPQLADVRIEYSWGGECDITANLVPHFGRLTSNVFYTQGYSGHGMAITGIAGLAVAEAILGDECRLKPFEQLCQPNIILQPFLRKLGSFLGSKYYQWKDSRLEHHHHHH
soluble on expression in E. coli: not soluble

MVTLEELKAVFKPKLKPIIWREDSLDLLDQSALPFQTTYITVKTPEEVAKAIKLMQVRGAPAIGITAGYGMVLALISTKPNTLNEAIEELVKAKQIMDQARPTAVNLSWATSRMLNFAKKKIEEGEAKSVSELIQLMKEEANRIYEEELEAELKIGMYGLEKISDGDTILTQCNAGGLATGTGLGTALAPVKLAHYLGMKVSVIAPETRPWLQGSRLTVYELMAEGIQVTLITDTAVGLVIYKNMVNSVMVGADRILKDGHVFNKIGTFKEAVISHELGIPFYALAPSSSFDLKSKVDEIKIEERDPNEVRTIRGIPIVPENVKVYNPVFDVTPPKYITALITEKGVIYPPFEKNIPKIIGL
soluble on expression in E. coli: soluble

MGSDKIHHHHHHMGVVRTDKWLKRYVVQWPKAQVAGEKFELQQKLIISLLKDAFHTDHLDELQQQLLGQGLFLPTDDIELSYRALQDRAIWHLVHKQYTELREKWKGPNVPIYLFPVNTANPTIREQLGMKMGVSYRDKIVLFIGEMTSDQDVQALVTHEYHHCCRLTQLKLYEGTMTLLESMVMEGLAEKAVAEEVGRDALAIWTSRYDKADLHSLWALLLEQRMMKGRDRHYPYLFGGVGGIPEWAGYYLGYRIVDQAMKNDPTLTTTSMMKMEAEAILQRSFSAKRGRAVAVRGREISRDHS
soluble on expression in E. coli: not soluble

MPTPPGQSSSQPLPAKELGYFKKIVKSYEQKQYKAGLKFAQKILTSPGFAEHGETLAMKGLILNCMGKLQEAQDCVRRGLVSDLRSYVCWHVFGLIQKTEKKYDEAIKAYKRALMLEKDNLQILRDLSLLQIHIRDYDGYLSSKYELLQLRQTQRVSWLGYIVAHHLLKEHNLALGIMAEYIKNNTPSGYDFEFSELILYQNLIMREAGLPDVALQKLEENSTHIVDKVAYMETRANLLMDLEQPKQAENVWRALIERNPDSLEYYDMLEKCMGIKDSPKAQLAMLDGLAEKFKRAAAPRRLALYLVEGEELRRRLHEWMIPMLRKGAPSLFASLVPLYKYPQKQAVIESLITEYVKKMDDEGYGNVSLDGKDQECEPPTTALWLYVLASHHFDRCGMTQLALNYIERAIQHTPTVVENYMLKARIYKHAGDYDEAARWMEEAQSLDTADRYINGKCGKYLLRAKRSDEANKMLAKFTREGENAASHLTDMQCMWYELESGRAFRSVNKYGEALRKAHHIDFHFNTWIEDQYDFHTYCLRKMTLCSYIRLLRMCDKLRDADYYYQGAKLAIKIYLRMIDRPDDMNEHSALIKEGMTDQEIKKMKKKLKKQKELQEEEEKKKKDKEQKEEGLQRGPQIDAEALLKTEDPLGEAAKFCHNIHTFGTQKVTGYALCAEVYRRKGKVLLALKCLNEGEDREPTHPLLHVQKVKFLAYWPKCELSGLVKETADELMKCVYGAERDAAELNEKFKIEHQHDFAHRLAYAEAQYSIDSSTNLISWILKSIEDSKVNGRSLKMMIKLKDGIEYGKYGKWSKDDMEKLRKQVHSLFPLSLDFGGGVQHKSASAAPTSAETN
soluble on expression in E. coli: not soluble

MSESIESYGIRLLNVYRETICDGPGLHYSIYLAGCRHACPGCHNPSSWDPEAGVLMTDSILGNIIREINANPLLDGITLSGGDPFYNPAGLTCLLQRLRASCTLPIWCYTGYTLEQLETDPMLSAPLALIDVLVDGPFVRELFDPTLLWRGSSNQCIIRLHENLEHHHHHH
soluble on expression in E. coli: not soluble

SLRTYFAQRAEMEQLAATEAMLRRQIADLEEQQVKLADPAYIAAQARERLGFVMPGDIPFQVQLPSTPLAPPQPGSDAATATNNEPWYTALWHTIADDPHLPPAAPPAPEPGRPGPLPPASPNPEQPGG
soluble on expression in E. coli: soluble

EVQLVESGGGLVQPGGSLRLSCAASGFTFSRYTMSWVRQAPGKGLEWVATISGGGHTYYLDSVKGRFTISRDNSKNTLYLQMNSLRAEDTAVYYCTRGFGDGGYFDVWGQGTLVTVSSAKTTPPSVYPLAPGSAAQTNSMVTLGCLVKGYFPEPVTVTWNSGSLSSGVHTFPAVLQSDLYTLSSSVTVPSSTWPSETVTCNVAHPASSTKVDKKIVPRDCHHHHHH
soluble on expression in E. coli: soluble

NDKYMLLVFGRNGCSYCERFKKDLKNVKELRDYIKEHFSAYYVNISYSKEHDFKVGDKNNEKEIKMSTEELAQIYAVQSTPTIVLSDKTGKTIYELPGYMPSTQFLAVLEFIGDGKYQDTKDDEDLTKKLKAYIKYKTNLSKSKSN
soluble on expression in E. coli: not soluble

MLNQLDNLTERVRGSNKLVDRWLHVRKHLLVAYYNLVGIKPGKESYMRLNEKALDDFCQSLVDYLSAGHFSIYERILHKLEGNGQLARAAKIWPQLEANTQQIMDYYDSSLETAIDHDNYLEFQQVLSDIGEALEARFVLEDKLILLVLDAARVKHPA
soluble on expression in E. coli: soluble

MKQADELRFNEDGLIPAIVQDAASKEVLTLAYMNKESYEKTLETKETWFYSRSRQALWHKGETSGNTQAVKGIRYDCDQDALLVLVEPSGPACHTGSYSCFTKEQTEEQAADRFGIMNELERVIAERQAEMPEGAYTTYLFREGVDKILKKVGEEASEVIIAAKNRDHEELKWEAADLLYHLLVLLREQSLPLDDVLDVLKKRHSEIEELEHHHHHH
soluble on expression in E. coli: not soluble

MALPRITQKEMTEREQRELKTLLDRARIAHGRPLTNSETNSVKKEYIDKLMALREAEAKKARQLKKKQAYKPDTEASFSWSANTPTRGRR
soluble on expression in E. coli: not soluble

GAADKRIDGNGNPETREIKISDYDEITFVGSADFEYEQSDKAPYLSVTIDENLFDYLVTEVEGGTLKIYPKSIKKGFNNNSYDLRPTVYKIKSNSKELKELNTVGSGSFIISKPTKVNRMEINMAGSGNVELRGPVKGYKLECNMAGSGNIIAKDIQLDNLSCSLASSGEIEVIGTVDRASFNVAGSGEIKAFDCQARKAECNIASSGEISVYATQILDANIVGSGEIHYKGDPEISKSIMGSGSINKVK
soluble on expression in E. coli: soluble

Reference: the DeepSol protein solubility set
